Assay results as given in publication doi:10.1101/847608 (bioRxiv, 2019).

Biological target: the molecule itself
Assay: turbidity

SGYDFEREGYS [SGYDFEREGYS peptide (wild type peptide, NP 287-297)]
binding result: binds
